In patent US7189506B1, “DNA binding compound-mediated molecular switch system” (Genelabs Technologies, Inc.):

Tests used:
[1] = system: LacR; conditions: modified LacR DNA response sequence SEQ ID NO:35
[2] = system: p50 NF-κB; experiment: Gel mobility shift assay, displacement of p50 NF-kB; type: binding; conditions: JF102 oligonucleotide
Description: A purified Thioredoxin-p50 NF-kB fusion protein (p50C) (Genelabs Technologies, Inc.) was used to generate five oligonucleotides comprising an NF-kB DNA response element and one or two overlapping binding sites for the AT-rich binder, 21x.
The exemplified NF-kB binding sites, […] (SEQ ID NO:29) and […] (SEQ ID NO:30) are present in the Igk and IL-6 promoters, respectively.
Oligonucleotides JF101 (SEQ ID NO:31) and 102 (SEQ ID NO:32), have compound binding sequences overlapping the right side of the NF-kB DNA response element, while in the case of JF103 (SEQ ID NO:33), the overlaps are from both sides (FIG. 7).

[3] = system: UL9-KRAB chimeric repressor (ULKRAB) (Herpes simplex virus type 1?); experiment: cell_activity; conditions: 0.8 to 1 ug pULKRAB
[4] = system: UL9-VP16 chimeric activator (ULVP) (Herpes simplex virus type 1?); experiment: cell_activity; conditions: 25 ng pULVP, HeLa
[5] = biological target: T1, GST-UL9 (UL9 C-terminal DNA-binding domain) (Herpes simplex virus type 1?, UniProt P10193 P10193:535-851); experiment: EMSA; 10 nM GST-UL9; 21x displacement most efficient with overlap at 3' end of site; conditions: tags: GST fusion, pGEX-UL9 (Genelabs); label: 32P
T1 sequence (P10193 535-851, one chain of several): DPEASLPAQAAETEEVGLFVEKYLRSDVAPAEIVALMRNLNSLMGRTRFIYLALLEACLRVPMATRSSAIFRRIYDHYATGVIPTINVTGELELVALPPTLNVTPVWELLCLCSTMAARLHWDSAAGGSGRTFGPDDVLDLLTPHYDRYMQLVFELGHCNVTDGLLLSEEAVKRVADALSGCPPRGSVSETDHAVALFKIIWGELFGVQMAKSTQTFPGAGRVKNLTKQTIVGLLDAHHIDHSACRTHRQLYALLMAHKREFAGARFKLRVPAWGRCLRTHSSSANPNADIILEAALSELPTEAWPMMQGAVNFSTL

[6] = biological target: T1, GST-UL9 (UL9 C-terminal DNA-binding …); experiment: EMSA; 10 nM GST-UL9, 20 mM HEPES pH 7.5, 50 mM KCl, RT; displaced by 21x; conditions: tags: GST fusion, pGEX-UL9 (Genelabs); label: 32P
[7] = biological target: T2, LacR (lac repressor) (UniProt P03023 P03023:1-360); experiment: EMSA; displaced by 21x more efficiently than by IPTG; conditions: chain copies: 4; label: 32P
T2 sequence (P03023 whole entry, one chain of several): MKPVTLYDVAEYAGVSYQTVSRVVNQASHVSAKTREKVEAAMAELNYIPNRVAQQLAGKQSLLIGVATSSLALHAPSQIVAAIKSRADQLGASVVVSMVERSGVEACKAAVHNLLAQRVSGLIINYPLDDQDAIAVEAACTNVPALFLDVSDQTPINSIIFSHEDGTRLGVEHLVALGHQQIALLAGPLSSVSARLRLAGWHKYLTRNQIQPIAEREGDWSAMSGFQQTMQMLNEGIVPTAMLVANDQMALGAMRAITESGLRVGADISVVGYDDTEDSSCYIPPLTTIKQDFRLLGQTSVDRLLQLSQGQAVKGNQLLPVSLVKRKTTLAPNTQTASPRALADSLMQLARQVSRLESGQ

[8] = biological target: T2, LacR (lac repressor); experiment: EMSA; displaced by 21x; conditions: chain copies: 4; label: 32P

CC(C)S[C@@H]1O[C@H](CO)[C@H](O)[C@H](O)[C@H]1O [IPTG]
LacR displacement efficiency, 21x versus IPTG [1]: 21x appears to displace LacR more efficiently than IPTG

Cn1cc(NC(=O)c2cc(NC(=O)c3cc(NC=O)cn3C)cn2C)cc1C(=O)NCCC(=N)N [distamycin]
NF-kB displacement efficiency, 21x versus distamycin [2]: 21x displaces NF-kB more efficiently than distamycin

p5Gal/p5GalE GAL4 response element (5 tandem repeats)
activity ([3]; p5GalE control): 62 % of basal
activity ([4]; p5Gal, not activated significantly): 2 fold

p5UL/p5ULE UL9-21x response element (5 tandem repeats)
activity ([3]; p5ULE, HeLa): 5 % of basal
activity ([4]; p5UL): 24 fold

B1: YK 202RX-A (dsDNA)
DNA 1: CATGGACGCCACTGAGCCGTGTTCGCACTTTTTTTTGAGGCGAGTCGATGCACC
DNA 2: GGTGCATCGACTCGCCTCAAAAAAAAGTGCGAACACGGCTCAGTGGCGTCCATG
binding result [5]: binds

B2: YK 202RX (dsDNA)
DNA 1: CATGGACGCCACTGAGCCGTTTTTGTTCGCACTTTTTTTTGAGGCGAGTCGATGCACC
DNA 2: GGTGCATCGACTCGCCTCAAAAAAAAGTGCGAACAAAAACGGCTCAGTGGCGTCCATG
binding result [5]: binds

B3: YK 202LX (dsDNA)
DNA 1: CATGGACGCCACTGAGCCGTTTTTGTTCGCACTTGAGGCGAGTCGATGCACC
DNA 2: GGTGCATCGACTCGCCTCAAGTGCGAACAAAAACGGCTCAGTGGCGTCCATG
binding result [6]: binds

B4: lacO modified (dsDNA)
DNA 1: TTTTTTTTGTGAGCGGATAACAAAA
DNA 2: TTTTGTTATCCGCTCACAAAAAAAA
binding result [7]: binds

B5: lacO modified (symmetric) (dsDNA)
DNA 1: AAAAAATTGTGAGCGCTCACAATTTTTT
DNA 2: AAAAAATTGTGAGCGCTCACAATTTTTT
binding result [8]: binds
